From PMC2996326, “LaeA Control of Velvet Family Regulatory Proteins for Light-Dependent Development and Fungal Cell-Type Specificity” (PLoS Genetics, 2010)

Target: the molecule itself
Experiment: not stated; VelB heterologously expressed in Escherichia coli; data not shown

B1: VelB expressed in Escherichia coli (natural protein, Aspergillus nidulans, UniProt C8VTS4 1-369, looked up)
chain: MYAVEDRAHSGHHPPPLSMDRIPPPSTMYPSSAGPSAMVSPAGQPEPESLSTVHDGRIWSLQVVQQPIRARMCGFGDKDRRPITPPPCIRLIVKDAQTQKEVDINSLDSSFYVVMADLWNADGTHEVNLVKHSATSPSISTAMSSSYPPPPHPTSSDYPASYQTNPYGQPVGQPVGQPVGYAGVGNYYGGSTQLQYQNAYPNPQAQYYQPMYGGMAQPQMPAAQPVTPGPGGMFTRNLIGCLSASAYRLYDTEDKIGVWFVLQDLSVRTEGIFRLKFSFVNVGKSVSDLPQSDIAEVINKGTAPILASTFSEPFQVFSAKKFPGVIESTPLSKVFANQGIKIPIRKDGVKGQGSRGRHSDEDDGLDNEY
notes: VelB of Aspergillus nidulans, heterologously expressed; construct not described; neither the construct, its tags nor its purification are described; source: heterologous expression in Escherichia coli
For B1, which “stoichiometry N” value is on record?
Its value is 2.
